Changes are numbered by the printed parent chain.
What was measured:
[1] = target: T1, U2AF23 WT;U2AF59 fragment (Schizosaccharomyces …, UniProt Q09176;P36629 1-216;93-161, |); assay: ITC
T1 sequence 1: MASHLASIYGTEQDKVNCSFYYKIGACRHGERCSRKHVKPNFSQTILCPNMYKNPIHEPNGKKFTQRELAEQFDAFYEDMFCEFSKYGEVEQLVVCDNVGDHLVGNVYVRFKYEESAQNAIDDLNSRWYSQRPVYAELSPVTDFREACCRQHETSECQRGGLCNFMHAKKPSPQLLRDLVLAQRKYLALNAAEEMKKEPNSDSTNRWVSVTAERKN
T1 sequence 2: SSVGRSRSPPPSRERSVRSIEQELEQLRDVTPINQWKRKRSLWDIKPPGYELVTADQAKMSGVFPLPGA

[2] = target: T2, U2AF23 F20A;U2AF59 fragment (Schizosaccharomyces …, UniProt Q09176;P36629 1-216;93-161, F20A|); assay: ITC
T2 sequence 1: T1 sequence 1 with F20A
T2 sequence 2: T1 sequence 2

[3] = target: T3, U2AF23 R35S;U2AF59 fragment (Schizosaccharomyces …, UniProt Q09176;P36629 1-216;93-161, R35S|); assay: ITC
T3 sequence 1: T1 sequence 1 with R35S
T3 sequence 2: T1 sequence 2

[4] = target: T4, U2AF23 F165A;U2AF59 fragment (Schizosaccharomyces …, UniProt Q09176;P36629 1-216;93-161, F165A|); assay: ITC
T4 sequence 1: T1 sequence 1 with F165A
T4 sequence 2: T1 sequence 2

[5] = target: T5, U2AF23 R159S;U2AF59 fragment (Schizosaccharomyces …, UniProt Q09176;P36629 1-216;93-161, R159S|); assay: ITC
T5 sequence 1: T1 sequence 1 with R159S
T5 sequence 2: T1 sequence 2

[6] = target: T6, U2AF23 R150S;U2AF59 fragment (Schizosaccharomyces …, UniProt Q09176;P36629 1-216;93-161, R150S|); assay: ITC
T6 sequence 1: T1 sequence 1 with R150S
T6 sequence 2: T1 sequence 2

[7] = target: T7, U2AF23 R28S;U2AF59 fragment (Schizosaccharomyces …, UniProt Q09176;P36629 1-216;93-161, R28S|); assay: ITC
T7 sequence 1: T1 sequence 1 with R28S
T7 sequence 2: T1 sequence 2

[8] = target: T8, U2AF23 Q151R;U2AF59 fragment (Schizosaccharomyces …, UniProt Q09176;P36629 1-216;93-161, Q151R|); assay: ITC
T8 sequence 1: T1 sequence 1 with Q151R
T8 sequence 2: T1 sequence 2

[9] = target: T9, U2AF23, the small subunit of fission yeast Schizosaccharomyces pombe U2AF (Schizosaccharomyces pombe, UniProt Q09176 1-216); assay: crystal structure
T9 sequence: T1 sequence 1

For CUGGG (ssRNA), the Kd [1] was 63 µM.

With CUAGG (ssRNA) the binding result [2] was “no binding”, the binding result [3] was “no binding” and the Kd [1] was 1.2 µM. CUAGG (ssRNA): no binding [4]; no binding [5]; no binding [6]. The Kd [7] was 12 µM and the Kd [8] was 0.75 µM.

UUUUUUUUUU (ssRNA) [U10]: no binding [1].

CUUGG (ssRNA) gave a Kd [1] of 429 µM.

CUACG (ssRNA): no binding [1].

B1: U2AF59 fragment spanning residues 93–161 (S. pombe U2AF large subunit) (domain or fragment)
chain: T1 sequence 2
B1: binds [9].

CUAUG (ssRNA) was tested, and the binding result [1] was “no binding” and the Kd [8] was 53 µM.

For CUCGG (ssRNA), the Kd [1] was 296 µM.
